According to article PMC4027168:

Tests used:
Test in all cases: EMSA
Conditions in all cases: 50 mM Tris-HCl pH 8.0, 5 mM EDTA, 1 mM DTT, 100 mg/ml BSA (so in the source), 6% glycerol, on ice 20 min, 4% native PAGE in 6.7 mM Tris-HCl pH 8.0, 3.3 mM Na …, scale: fold of wild-type affinity
[1] = system: RecG[ΔC1] (Escherichia coli K-12 MG1655?)
[2] = system: RecG[A693Q] (Escherichia coli K-12 MG1655?)
[3] = system: RecG[Y690A] (Escherichia coli K-12 MG1655?)
[4] = no Mg2+, 5 mM EDTA, RecG 0-100 nM, DNA 0.2 nM

Measured: binding signal

J12 Holliday junction
1: [1]; [4] | [2]; [4] | [3]; [4]

replication fork lacking a lagging strand
1: [1] | [2] | [3]
